The record followed here is paper PMC5931990.

This assay addresses Mouse CLIC6 CLIC domain (residues 363-597) (mouse) (UniProt Q8BHB9). Put plainly: SEC; analytical gel filtration after 10 minutes with 0 to 2 mM H2O2; running buffer without reducing or oxidative agents.

Usually stoichiometry N stands for the number of molecules, sites or subunits per partner or assembly. “Mouse CLIC6 CLIC domain (residues 363-597) (from UniProt Q8BHB9 363-596) (domain or fragment)” registered a stoichiometry N of 2.
